# Data as given in US8673594B2, “Methods for stimulating nervous system regeneration and repair by regulating arginase I and polyamine synthesis” (Research Foundation of City University of New York, priority 2000, dated 2014).
# What was measured:
# [1] = system: Arg I RNA in cerebellar neurons; assay: Arginase I RNA level in cerebellar neurons by RT-PCR and quantitative PCR; type: cell-based; conditions: overnight dbcAMP 1 mM or BDNF 200 ng/ml; P<0.005
# Method: FIG. 4: Priming Neurons With Brain Derived Neurotrophic Factor (BDNF) or Dibutyryl (db) cAMP Up-Regulates Arginase I RNA Levels In Cerebellar Neurons. RNA isolated from cerebellar neurons without treatment (lane 2), from cerebellar neurons exposed overnight to either BDNF (200 ng/ml) (lane 3) or dbcAMP (1 mM) (lane 4), was reverse, transcribed and subjected to (A) semi-quantitative PCR; or (B) quantitative PM; using primers specific for arginase I. As a positive control, RNA isolated from liver tissue was subjected to RT PCR and quantitative PCR procedures using the same primers ((A), lane 1; (B), “Liver”)
# To determine whether elevated cAMP levels causes an up-regulation of arginase expression, cerebellar neurons were primed with neurotrophins (BDNF) or dbcAMP (Example 1), and RNA and protein was extracted from primed neurons (Example 2). The extracted RNA was used as a template for reverse transcription and PCR amplification using primers specific for the gene encoding the enzyme arginase I (“Arg I”), an isoform of arginase abundant in liver tissue but barely detectable in other tissues.
# Cerebellar neurons were primed with neurotrophins (BDNF, GDNF) or dbcAMP according to the procedures in Example 1. […]
# Finally, ArgI amplified cDNA samples were detected by electrophoretic separation on a 1% agarose gel and staining with ethidium bromide.
# [2] = system: ArgI protein in cerebellar neurons; assay: Arginase I protein level in cerebellar neurons by SDS-PAGE and Western blot; type: cell-based; conditions: for increase in amount of ArgI protein: after 1 hour of exposure; for increase in amount of ArgI protein / time of peak of ArgI protein increase post-treatment / time for which ArgI protein increase was sustained: dbcAMP 1 mM or BDNF 200 ng/ml; for time for which ArgI protein increase was sustained: declining by 24 hours
# Method: Cerebellar neurons were untreated (−) or exposed to either (A) 200 ng/ml BDNF or (B) 1 mM dbcAMP for 1 hour (h), 3 h, 21 h or 24 h; or (C) 200 ng/ml GDNF (+) for 1 h, 3 h or 5 h and the cells lysed in the presence of protease inhibitors. Total protein (23 μg) was subjected to SDS-polyacrylamide gel (12%) electrophoresis (SDS-PAGE), transferred to nitrocellulose membrane and immunostained with antibody to Arg I. The arrows indicate the position of ArgI polypeptide.
# We next assessed the expression of ArgI in cerebellar neurons at the protein level. After exposure of cerebellar neurons to either dbcAMP or BDNF for various times, neurons were lysed, proteins were extracted and the extracted proteins were separated by SDS PAGE before being transferred to membrane and immunostained with a polyclonal antibody against arginase I (see Example 2).
# Cerebellar neurons were untreated (−) or exposed to 200 ng/ml GDNF for 1 h, 3 h or 5 h and the cells lysed in the presence of protease inhibitors. Total protein (23 μg) was subjected to SDS-polyacrylamide gel (12%) electrophoresis (SDS-PAGE), transferred to nitrocellulose membrane and immunostained with antibody to Arg I. As shown in FIG. 5(C), the amount of ArgI polypeptide increased at least two-fold after treatment of neurons with GDNF.
# Neurons were lysed, proteins were extracted and the extracted proteins (23 μg of total protein per lane) separated by SDS-polyacrylamide gel (12%) electrophoresis (SDS-PAGE) according to well-known procedures (see Ausubel et al., supra). Separated proteins were transferred to nitrocellulose membrane and immunostained with antibody to Arg I. The results are shown in FIG. 5, where the arrows indicate the position of ArgI polypeptide. Polyclonal antibodies were generated against the recombinant arginase of Cavalli at al., Biochemistry, 33, pp. 10652-657 (1994), which described the recombinant expression and purification of rat liver arginase I in E. coli. Polyclonal antibodies were generated essentially according to the procedures of Hanly et al., ILAR Journal, 37, pp. 141-152 (1995), incorporated herein by reference.
# For the measurement of arginase I protein levels by immunoblot, cells were harvested and washed with ice cold PBS and then resuspended (100 μl/10^7 cells) in ice cold extraction buffer containing 50 mM Tris-HCl, pH 7.4, 150 mM NaCl, 2 mM EDTA, Triton-X 100, 1 mM phenylmethylsulfonyl fluoride (PMSF), 10 micrograms/ml leupeptin, 1 micromolar pepstatin, 1 mM N-ethylmaleimide (NEM), 2 mM Na3VO4, 20 mM sodium pyrophosphate, and 50 mM NaP). Lysates were centrifuged at 15,000 RPM at 4 degrees centigrade for 30 minutes. The clear cytosol was separated from the insoluble pellet fraction and immediately used for immunoblot. The supernatants were removed carefully and the protein concentration was quantified by the Bradford method. Lysates were mixed with boiling Laemmli's buffer (1× is 100 mM Tris-HCl, pH 6.8, 4% SDS, 200 mM dithiothreitol, 20% glycerol, 2% SDS, 0.2% bromophenol blue, 10 micrograms/ml aprotinin, 10 micrograms/ml leupeptin). The samples were boiled for 10 minutes at 100° C. and centrifuged at 15,000 rpm for 10 seconds. Approximately 30 micrograms of protein was electrophoresed under reducing conditions on 10% SDS-polyacrylamide gels and transferred to nitrocellulose membrane. Membranes were blocked in 5% skim milk in TBST (Tris, pH 7.4; 150 mM NaCl; 0.05% Tween 20) for 30 minutes at room temperature. Blots were probed with primary antibodies overnight at 4° C., followed by incubation with anti-rabbit or anti-mouse IgG conjugated with horseradish peroxidase (Bio-Rad, Hercules, Calif.) for 1 hour. Signals were detected using the ECL system (Amersham Corp, Arlington, Heights, Ill.).
Molecule,increase in amount of Arg I RNA by quantitative PCR [1],increase in amount of ArgI protein [2],time of peak of ArgI protein increase post-treatment [2],time for which ArgI protein increase was sustained [2] [h],"increase in amount of ArgI polypeptide ([2]; 200 ng/ml GDNF for 1 h, 3 h or 5 h)"
"CCCC(=O)Nc1ncnc2c1ncn2[C@@H]1O[C@@H]2COP(=O)(O)O[C@H]2[C@H]1OC(=O)CCC [dbcAMP, dibutyryl cAMP]",about 50%,at least two-fold,around 3 hours,21,–
"BDNF: Brain-derived neurotrophic factor, Trk-family neurotrophin (protein, UniProt P23560 19-247, looked up) Neurotrophic factor BDNF …: APMKEANIRGQGGLAYPGVRTHGTLESVNGPKAGSRGLTSLADTFEHVIEELLDEDQKVRPNEENNKDADLYTSRVMLSSQVPLEPPLLFLLEEYKNYLDAANMSMRVRRHSDPARRGELSVCDSISEWVTAADKKTAVDMSGGTVTVLEKVPVSKGQLKQYFYETKCNPMGYTKEGCRGIDKRHWNSQCRTTQSYVRALTMDSKKRIGWRFIRIDTSCVCTLTIKRGR",about 50%,at least two-fold,around 3 hours,21,–
"GDNF: glial cell line-derived neurotrophic factor (protein, UniProt P39905 78-211, looked up) Glial cell line-derived …: SPDKQMAVLPRRERNRQAAAANPENSRGKGRRGQRGKNRGCVLTAIHLNVTDLGLGYETKEELIFRYCSGSCDAAETTYDKILKNLSRNRRLVSDKVGQACCRPIAFDDDLSFLDDNLVYHILRKHSAKRCGCI",–,–,–,–,at least two-fold
